Data as given in patent US7354588B1, “Functional derivatives of ICAM-1 with altered ability to bind LFA-1 or HRV” (Dana Farber Cancer Institute, priority 1987, dated 2008).

Columns and labels:
R6.5 mAb = test: Indirect immunofluorescence flow cytofluorometry: mAb R6.5 binding to COS cells expressing ICAM-1 mutants (SLFI, % CL203); format: cell-based; details: SLFI normalized to CL203 SLFI of the mutant
Description: (§1) For HRV binding studies, COS cells were reseeded in a 24 well plate. One day later, the confluent monolayer was washed twice with 1 ml of RPMI 1640/10 mM MgCl2/25 mM Hepes pH 7.3 (rhinovirus-14 buffer). Transfected COS cells were labeled with 51Cr for binding to LFA-1 coated plastic as previously described (Staunton, D. E., et al., Nature 339:61-64 (1989). Immunoprecipitation and indirect immunofluorescence was performed using ICAM-1 MAb RR1/1 (Rothlein, R., et al., J. Immunol. 137:1270-1274 (1986)), R6.5 (Rothlein, R., et al., J. Immunol. 141:1665-1669 (1988)), LB-1 (Clark, E. A., et al., Hum. Immunol. 16:100-113 (1986)) and CL203 (Maio, M., J. Immunol. 143:181-188 (1989), all of which references are incorporated herein by reference).
(§2) Binding of RR1, R6.5, and LB-2 mAb was normalized to binding of CL203 mAb using Specific Linear Fluorescence Intensity (SLFI): % CL203=(mAbSLFI)×100)/CL203mABSLFI
(§3) In Table 25, the notation for the mutations uses the one-letter code for the wild-type sequence followed by a slash and the one-letter code for the corresponding mutant sequence. The position of the first amino acid within the sequence is indicated. Wild type residues precede the slash followed by the residues they were substituted for in the mutant. COS cells expressing ICAM-1 mutants were tested for adherence to LFA-1 coated plastic and for binding 35S met-labeled HRV14. LFA-1 and HRV14 binding is normalized for percent of cells expressing mutant ICAM-1 and for binding of wild type expressing cells. Binding is presented as mean and standard error (SE) for multiple experiments (n). Effects of two-fold or greater were reproducible in LFA-1, HRV and mAb binding assays and thus considered significant (bold and underlined). The specific linear fluorescence intensity (SLFI) of CL203 for each mutant is normalized to that of wild type CL203 SLFI (% WT) as discussed above. The SLFI of RR1/1, R6.5 and LB-2 SLFI is normalized to the CL203 SLFI of the mutant (% CL203) as described above.

LB-2 mAb = test: Indirect immunofluorescence flow cytofluorometry: mAb LB-2 binding to COS cells expressing ICAM-1 mutants (SLFI, % CL203); format: cell-based; details: SLFI normalized to CL203 SLFI of the mutant
Description: as §1, §2, §3

RR1/1 mAb = test: Indirect immunofluorescence flow cytofluorometry: mAb RR1/1 binding to COS cells expressing ICAM-1 mutants (SLFI, % CL203); format: cell-based; details: SLFI normalized to CL203 SLFI of the mutant
Description: as §1, §2, §3

HRV14 = test: Binding of [^35S]-Met labeled HRV14 to COS cells expressing ICAM-1 mutants; format: cell-based, human rhinovirus 14; details: for HRV Binding %: 35S met-labeled HRV14 binding to COS cells expressing ICAM-1 mutant, normalized for percent of cells expressing mutant and for wild type binding, mean; for decrease in HRV14 binding: COS cells expressing the mutant, relative to wild type
LFA-1 = target: T1, LFA-1 (Homo sapiens, UniProt P05107+P20701); test: Adherence of COS cells expressing ICAM-1 or ICAM-1 mutants to plastic-bound purified LFA-1; format: cell-based; details: for LFA-1 Binding %: COS cells expressing ICAM-1 mutant adhering to LFA-1 coated plastic, normalized for percent of cells expressing mutant and for wild type binding, mean; for decrease in LFA-1 binding: COS cells expressing the mutant, relative to wild type
T1 construct: endogenous in cells
T1 sequence (P20701 26-1170): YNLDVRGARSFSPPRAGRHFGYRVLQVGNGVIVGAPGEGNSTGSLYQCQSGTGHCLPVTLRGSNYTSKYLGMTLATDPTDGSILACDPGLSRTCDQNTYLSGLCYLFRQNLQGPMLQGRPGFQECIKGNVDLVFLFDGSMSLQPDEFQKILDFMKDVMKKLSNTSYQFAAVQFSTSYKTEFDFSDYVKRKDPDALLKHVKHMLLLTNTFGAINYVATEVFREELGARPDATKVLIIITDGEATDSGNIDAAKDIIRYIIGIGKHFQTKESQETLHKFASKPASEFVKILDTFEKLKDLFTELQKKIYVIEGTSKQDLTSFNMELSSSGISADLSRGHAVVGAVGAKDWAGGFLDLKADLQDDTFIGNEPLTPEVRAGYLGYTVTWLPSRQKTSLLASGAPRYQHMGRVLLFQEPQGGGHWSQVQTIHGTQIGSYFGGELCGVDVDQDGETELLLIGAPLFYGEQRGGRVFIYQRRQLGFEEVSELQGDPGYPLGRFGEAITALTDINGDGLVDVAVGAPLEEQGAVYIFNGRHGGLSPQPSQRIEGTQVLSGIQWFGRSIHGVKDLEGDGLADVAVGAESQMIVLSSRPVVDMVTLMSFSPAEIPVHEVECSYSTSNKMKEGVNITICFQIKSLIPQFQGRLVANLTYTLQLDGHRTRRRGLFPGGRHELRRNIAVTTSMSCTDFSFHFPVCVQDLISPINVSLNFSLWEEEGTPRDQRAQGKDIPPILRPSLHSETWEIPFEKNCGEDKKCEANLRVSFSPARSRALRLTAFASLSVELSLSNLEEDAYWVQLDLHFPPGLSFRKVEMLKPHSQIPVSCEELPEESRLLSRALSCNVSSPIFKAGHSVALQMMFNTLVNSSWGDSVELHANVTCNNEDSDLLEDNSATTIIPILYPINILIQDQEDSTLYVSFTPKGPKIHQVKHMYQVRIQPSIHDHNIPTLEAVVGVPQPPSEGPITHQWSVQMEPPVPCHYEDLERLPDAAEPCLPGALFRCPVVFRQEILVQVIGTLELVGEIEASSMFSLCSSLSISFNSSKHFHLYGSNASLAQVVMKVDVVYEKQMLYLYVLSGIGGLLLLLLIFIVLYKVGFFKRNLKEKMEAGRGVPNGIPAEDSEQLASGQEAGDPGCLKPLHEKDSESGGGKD
T1 sequence (P05107 23-769): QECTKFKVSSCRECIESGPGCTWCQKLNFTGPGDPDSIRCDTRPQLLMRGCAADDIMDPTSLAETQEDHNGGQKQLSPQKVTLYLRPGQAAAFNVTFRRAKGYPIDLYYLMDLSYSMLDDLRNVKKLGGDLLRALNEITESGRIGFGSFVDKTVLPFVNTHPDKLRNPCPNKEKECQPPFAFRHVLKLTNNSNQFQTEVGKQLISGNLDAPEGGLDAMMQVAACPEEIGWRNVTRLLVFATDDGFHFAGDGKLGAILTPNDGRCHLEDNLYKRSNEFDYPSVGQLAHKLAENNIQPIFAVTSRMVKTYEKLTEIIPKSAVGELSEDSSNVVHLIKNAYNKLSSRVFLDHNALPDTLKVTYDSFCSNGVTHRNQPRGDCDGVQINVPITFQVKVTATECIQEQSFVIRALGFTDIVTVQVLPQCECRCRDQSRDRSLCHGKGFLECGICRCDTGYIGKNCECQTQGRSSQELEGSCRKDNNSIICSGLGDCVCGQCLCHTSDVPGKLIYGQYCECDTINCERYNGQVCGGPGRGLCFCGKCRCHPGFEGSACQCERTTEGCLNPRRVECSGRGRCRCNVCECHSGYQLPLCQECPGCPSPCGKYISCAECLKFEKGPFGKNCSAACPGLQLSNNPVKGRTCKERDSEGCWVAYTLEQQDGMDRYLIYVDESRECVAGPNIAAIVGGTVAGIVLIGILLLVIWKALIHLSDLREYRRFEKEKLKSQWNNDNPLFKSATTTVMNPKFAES

CL203 mAb = test: Indirect immunofluorescence flow cytofluorometry: mAb CL203 binding to COS cells expressing ICAM-1 mutants (SLFI, % WT); format: cell-based; details: SLFI of CL203 for mutant normalized to wild type CL203 SLFI; level of expression
Description: as §1, §2, §3

Molecule	SLFI (% CL203) R6.5 (R6.5 mAb) [% CL203]	SLFI (% CL203) LB-2 (LB-2 mAb) [% CL203]	SLFI (% CL203) RR/1 (RR1/1 mAb) [% CL203]	HRV Binding % (HRV14) [%]	LFA-1 Binding % (LFA-1) [%]	decrease in LFA-1 binding (LFA-1)	Cl203 % WT (SLFI) (CL203 mAb) [% WT]	decrease in HRV14 binding (HRV14)
N118/Q: ICAM-1 domain 2 substitution mutant affecting an N-linked glycosylation site (protein, UniProt P05362 28-532, looked up, variant N118Q) Intercellular adhesion …: QTSVSPSKVILPRGGSVLVTCSTSCDQPKLLGIETPLPKKELLLPGNNRKVYELSNVQEDSQPMCYSNCPDGQSTAKTFLTVYWTPERVELAPLPSWQPVGKNLTLRCQVEGGAPRAQLTVVLLRGEKELKREPAVGEPAEVTTTVLVRRDHHGANFSCRTELDLRPQGLELFENTSAPYQLQTFVLPATPPQLVSPRVLEVDTQGTVVCSLDGLFPVSEAQVHLALGDQRLNPTVTYGNDSFSAKASVSVTAEDEGTQRLTCAVILGNQSQETLQTVTIYSFPAPNVILTKPEVSEGTEVTVKCEAHPRAKVTLNGVPAQPLGPRAQLLLKATPEDNGRSFSCSATLEVAGQLIHKNQTRELRVLYGPRLDERDCPGNWTWPENSQQTPMCQAWGNPLPELKCLKDGTFPLPIGESVTVTRDLEGTYLCRARSTQGEVTRKVTVNVLSPRYEIVIITVVAAAVIMGTAGLSTYLYNRQRKIKKYRLQQAQKGTPMKPNTQATPP	85	93	93	110	54	approximately two-fold	139	–
K39KE/ERQ: ICAM-1 substitution mutant, K39KE to ERQ (protein, UniProt P05362 28-532, looked up, variant K39E K40R E41Q) Intercellular adhesion …: QTSVSPSKVILPRGGSVLVTCSTSCDQPKLLGIETPLPERQLLLPGNNRKVYELSNVQEDSQPMCYSNCPDGQSTAKTFLTVYWTPERVELAPLPSWQPVGKNLTLRCQVEGGAPRANLTVVLLRGEKELKREPAVGEPAEVTTTVLVRRDHHGANFSCRTELDLRPQGLELFENTSAPYQLQTFVLPATPPQLVSPRVLEVDTQGTVVCSLDGLFPVSEAQVHLALGDQRLNPTVTYGNDSFSAKASVSVTAEDEGTQRLTCAVILGNQSQETLQTVTIYSFPAPNVILTKPEVSEGTEVTVKCEAHPRAKVTLNGVPAQPLGPRAQLLLKATPEDNGRSFSCSATLEVAGQLIHKNQTRELRVLYGPRLDERDCPGNWTWPENSQQTPMCQAWGNPLPELKCLKDGTFPLPIGESVTVTRDLEGTYLCRARSTQGEVTRKVTVNVLSPRYEIVIITVVAAAVIMGTAGLSTYLYNRQRKIKKYRLQQAQKGTPMKPNTQATPP	93	87	47	61	99	–	84	two-fold
N156/E: ICAM-1 domain 2 substitution mutant affecting an N-linked glycosylation site (protein, UniProt P05362 28-532, looked up, variant N156E) Intercellular adhesion …: QTSVSPSKVILPRGGSVLVTCSTSCDQPKLLGIETPLPKKELLLPGNNRKVYELSNVQEDSQPMCYSNCPDGQSTAKTFLTVYWTPERVELAPLPSWQPVGKNLTLRCQVEGGAPRANLTVVLLRGEKELKREPAVGEPAEVTTTVLVRRDHHGAEFSCRTELDLRPQGLELFENTSAPYQLQTFVLPATPPQLVSPRVLEVDTQGTVVCSLDGLFPVSEAQVHLALGDQRLNPTVTYGNDSFSAKASVSVTAEDEGTQRLTCAVILGNQSQETLQTVTIYSFPAPNVILTKPEVSEGTEVTVKCEAHPRAKVTLNGVPAQPLGPRAQLLLKATPEDNGRSFSCSATLEVAGQLIHKNQTRELRVLYGPRLDERDCPGNWTWPENSQQTPMCQAWGNPLPELKCLKDGTFPLPIGESVTVTRDLEGTYLCRARSTQGEVTRKVTVNVLSPRYEIVIITVVAAAVIMGTAGLSTYLYNRQRKIKKYRLQQAQKGTPMKPNTQATPP	95	95	84	107	60	approximately two-fold	182	–
R49KV/EKL: ICAM-1 substitution mutant, R49KV to EKL (protein, UniProt P05362 28-532, looked up, variant R49E V51L) Intercellular adhesion …: QTSVSPSKVILPRGGSVLVTCSTSCDQPKLLGIETPLPKKELLLPGNNEKLYELSNVQEDSQPMCYSNCPDGQSTAKTFLTVYWTPERVELAPLPSWQPVGKNLTLRCQVEGGAPRANLTVVLLRGEKELKREPAVGEPAEVTTTVLVRRDHHGANFSCRTELDLRPQGLELFENTSAPYQLQTFVLPATPPQLVSPRVLEVDTQGTVVCSLDGLFPVSEAQVHLALGDQRLNPTVTYGNDSFSAKASVSVTAEDEGTQRLTCAVILGNQSQETLQTVTIYSFPAPNVILTKPEVSEGTEVTVKCEAHPRAKVTLNGVPAQPLGPRAQLLLKATPEDNGRSFSCSATLEVAGQLIHKNQTRELRVLYGPRLDERDCPGNWTWPENSQQTPMCQAWGNPLPELKCLKDGTFPLPIGESVTVTRDLEGTYLCRARSTQGEVTRKVTVNVLSPRYEIVIITVVAAAVIMGTAGLSTYLYNRQRKIKKYRLQQAQKGTPMKPNTQATPP	97	52	103	49	123	–	233	two-fold
Q1T/KA: ICAM-1 substitution mutant, Q1T to KA (protein, UniProt P05362 28-532, looked up, variant Q1K T2A) Intercellular adhesion …: KASVSPSKVILPRGGSVLVTCSTSCDQPKLLGIETPLPKKELLLPGNNRKVYELSNVQEDSQPMCYSNCPDGQSTAKTFLTVYWTPERVELAPLPSWQPVGKNLTLRCQVEGGAPRANLTVVLLRGEKELKREPAVGEPAEVTTTVLVRRDHHGANFSCRTELDLRPQGLELFENTSAPYQLQTFVLPATPPQLVSPRVLEVDTQGTVVCSLDGLFPVSEAQVHLALGDQRLNPTVTYGNDSFSAKASVSVTAEDEGTQRLTCAVILGNQSQETLQTVTIYSFPAPNVILTKPEVSEGTEVTVKCEAHPRAKVTLNGVPAQPLGPRAQLLLKATPEDNGRSFSCSATLEVAGQLIHKNQTRELRVLYGPRLDERDCPGNWTWPENSQQTPMCQAWGNPLPELKCLKDGTFPLPIGESVTVTRDLEGTYLCRARSTQGEVTRKVTVNVLSPRYEIVIITVVAAAVIMGTAGLSTYLYNRQRKIKKYRLQQAQKGTPMKPNTQATPP	115	113	94	11	119	–	230	ten-fold
S177/G: ICAM-1 domain 2 substitution mutant affecting an N-linked glycosylation site (protein, UniProt P05362 28-532, looked up, variant S177G) Intercellular adhesion …: QTSVSPSKVILPRGGSVLVTCSTSCDQPKLLGIETPLPKKELLLPGNNRKVYELSNVQEDSQPMCYSNCPDGQSTAKTFLTVYWTPERVELAPLPSWQPVGKNLTLRCQVEGGAPRANLTVVLLRGEKELKREPAVGEPAEVTTTVLVRRDHHGANFSCRTELDLRPQGLELFENTGAPYQLQTFVLPATPPQLVSPRVLEVDTQGTVVCSLDGLFPVSEAQVHLALGDQRLNPTVTYGNDSFSAKASVSVTAEDEGTQRLTCAVILGNQSQETLQTVTIYSFPAPNVILTKPEVSEGTEVTVKCEAHPRAKVTLNGVPAQPLGPRAQLLLKATPEDNGRSFSCSATLEVAGQLIHKNQTRELRVLYGPRLDERDCPGNWTWPENSQQTPMCQAWGNPLPELKCLKDGTFPLPIGESVTVTRDLEGTYLCRARSTQGEVTRKVTVNVLSPRYEIVIITVVAAAVIMGTAGLSTYLYNRQRKIKKYRLQQAQKGTPMKPNTQATPP	118	90	136	66	59	approximately two-fold	87	–
